The record followed here is publication PMC10241002 (Autophagy, 2022).

Usually stoichiometry N stands for a count of units in the complex or per binding partner.

The data set deals with the molecule itself. The data set can be described thus: single-molecule fluorescence stoichiometry analysis.

B1: Atg9-GFP (purified, GFP-3xFLAG fusion) (natural protein, S. cerevisiae, UniProt Q12142 1-997, looked up)
chain: MERDEYQLPNSHGKNTFLSRIFGLQSDEVNPSLNSQEMSNFPLPDIERGSSLLHSTNDSREDVDENDLRVPESDQGTSTEEEDEVDEEQVQAYAPQISDGLDGDHQLNSVTSKENVLETEKSNLERLVEGSTDDSVPKVGQLSSEEEEDNEFINNDGFDDDTPLFQKSKIHEFSSKKSNTIEDGKRPLFFRHILQNNRPQRDTQKLFTSSNAIHHDKDKSANNGPRNINGNQKHGTKYFGSATQPRFTGSPLNNTNRFTKLFPLRKPNLLSNISVLNNTPEDRINTLSVKERALWKWANVENLDIFLQDVYNYYLGNGFYCIILEKILNICTLLFVVFVSTYMGHCVDYSKLPTSHRVSDIIIDKCYSNSITGFTKFFLWMFYFFVILKIVQLYFDVQKLSELQNFYKYLLNISDDELQTLPWQNVIQQLMYLKDQNAMTANVVEVKAKNRIDAHDVANRIMRRENYLIALYNSDILNLSLPIPLFRTNVLTKTLEWNINLCVMGFVFNESGFIKQSILKPSQREFTREELQKRFMLAGFLNIILAPFLVTYFVLLYFFRYFNEYKTSPGSIGARQYTPIAEWKFREYNELYHIFKKRISLSTTLANKYVDQFPKEKTNLFLKFVSFICGSFVAILAFLTVFDPENFLNFEITSDRSVIFYITILGAIWSVSRNTITQEYHVFDPEETLKELYEYTHYLPKEWEGRYHKEEIKLEFCKLYNLRIVILLRELTSLMITPFVLWFSLPSSAGRIVDFFRENSEYVDGLGYVCKYAMFNMKNIDGEDTHSMDEDSLTKKIAVNGSHTLNSKRRSKFTAEDHSDKDLANNKMLQSYVYFMDDYSNSENLTGKYQLPAKKGYPNNEGDSFLNNKYSWRKQFQPGQKPELFRIGKHALGPGHNISPAIYSTRNPGKNWDNNNNGDDIKNGTNNATAKNDDNNGNNDHEYVLTESFLDSGAFPNHDVIDHNKMLNSNYNGNGILNKGGVLGLVKEYYKKSDVGR
B1: the binding result is recorded as “binds”.

B2: Atg9^F627A-GFP (purified, GFP-3xFLAG fusion) (natural protein, S. cerevisiae, UniProt Q12142 1-997, looked up)
chain: MERDEYQLPNSHGKNTFLSRIFGLQSDEVNPSLNSQEMSNFPLPDIERGSSLLHSTNDSREDVDENDLRVPESDQGTSTEEEDEVDEEQVQAYAPQISDGLDGDHQLNSVTSKENVLETEKSNLERLVEGSTDDSVPKVGQLSSEEEEDNEFINNDGFDDDTPLFQKSKIHEFSSKKSNTIEDGKRPLFFRHILQNNRPQRDTQKLFTSSNAIHHDKDKSANNGPRNINGNQKHGTKYFGSATQPRFTGSPLNNTNRFTKLFPLRKPNLLSNISVLNNTPEDRINTLSVKERALWKWANVENLDIFLQDVYNYYLGNGFYCIILEKILNICTLLFVVFVSTYMGHCVDYSKLPTSHRVSDIIIDKCYSNSITGFTKFFLWMFYFFVILKIVQLYFDVQKLSELQNFYKYLLNISDDELQTLPWQNVIQQLMYLKDQNAMTANVVEVKAKNRIDAHDVANRIMRRENYLIALYNSDILNLSLPIPLFRTNVLTKTLEWNINLCVMGFVFNESGFIKQSILKPSQREFTREELQKRFMLAGFLNIILAPFLVTYFVLLYFFRYFNEYKTSPGSIGARQYTPIAEWKFREYNELYHIFKKRISLSTTLANKYVDQFPKEKTNLFLKFVSAICGSFVAILAFLTVFDPENFLNFEITSDRSVIFYITILGAIWSVSRNTITQEYHVFDPEETLKELYEYTHYLPKEWEGRYHKEEIKLEFCKLYNLRIVILLRELTSLMITPFVLWFSLPSSAGRIVDFFRENSEYVDGLGYVCKYAMFNMKNIDGEDTHSMDEDSLTKKIAVNGSHTLNSKRRSKFTAEDHSDKDLANNKMLQSYVYFMDDYSNSENLTGKYQLPAKKGYPNNEGDSFLNNKYSWRKQFQPGQKPELFRIGKHALGPGHNISPAIYSTRNPGKNWDNNNNGDDIKNGTNNATAKNDDNNGNNDHEYVLTESFLDSGAFPNHDVIDHNKMLNSNYNGNGILNKGGVLGLVKEYYKKSDVGR
As to B2, the “stoichiometry N” value stood at 3.
